Molecular target: the molecule itself
Assay: SEC

Row | Protein | stoichiometry N | binding result
1 | 17X-PTDH-R301A (phosphite dehydrogenase from Pseudomonas stutzeri WM88, 17X background, Arg301Ala) (enzyme, UniProt O69054 1-336, looked up) MLPKLVITHRVHEEILQLLAPHCELITNQTDSTLTREEILRRCRDAQAMMAFMPDRVDADFLQACPELRVIGCALKGFDNFDVDACTARGVWLTFVPDLLTVPTAELAIGLAVGLGRHLRAADAFVRSGKFRGWQPRFYGTGLDNATVGFLGMGAIGLAMADRLQGWGATLQYHAAKALDTQTEQRLGLRQVACSELFASSDFILLALPLNADTLHLVNAELLALVRPGALLVNPCRGSVVDEAAVLAALERGQLGGYAADVFEMEDWARADRPQQIDPALLAHPNTLFTPHIGSAVRAVALEIERCAAQNILQALAGERPINAVNRLPKANPAAD | 2 | –
2 | 17X-PTDH (thermostable phosphite dehydrogenase mutant TS-PTDH with the additional E175A mutation) (enzyme, Pseudomonas stutzeri WM88, UniProt O69054 1-336, looked up) MLPKLVITHRVHEEILQLLAPHCELITNQTDSTLTREEILRRCRDAQAMMAFMPDRVDADFLQACPELRVIGCALKGFDNFDVDACTARGVWLTFVPDLLTVPTAELAIGLAVGLGRHLRAADAFVRSGKFRGWQPRFYGTGLDNATVGFLGMGAIGLAMADRLQGWGATLQYHAAKALDTQTEQRLGLRQVACSELFASSDFILLALPLNADTLHLVNAELLALVRPGALLVNPCRGSVVDEAAVLAALERGQLGGYAADVFEMEDWARADRPQQIDPALLAHPNTLFTPHIGSAVRAVRLEIERCAAQNILQALAGERPINAVNRLPKANPAAD | – | binds
